From patent publication US20210213134
Residue numbers refer to the chain shown, from its start.

B1: Azido-C35STRX (C35STRX with azido-PEG linkers on Lys residues, reduced) (protein)
chain: MVKQIESKTAFQEALDAAGDKLVVVDFSATWCGPSKMIKPFFHSLSEKYSNVIFLEVDVDDCQDVASECEVKCMPTFQFFKKGQKVGEFSGANKEKLEATINELV
B2: native human thioredoxin-1 (TRX) (protein)
chain: B1 chain with S35C

Target: insulin (fully disulfide-bonded heterodimeric insulin)

Row | Protein | activity in the insulin assay as compared to unreacted reduced C35STRX | insulin disulfide bond reduction activity
1 | B1 | the conjugated material retained about 33% of its activity in the insulin assay as compared to unreacted reduced C35STRX | –
2 | B2 | – | GSH is capable of restoring insulin disulfide bond reduction activity to oxidized TRX (FIG. 1)
